Positions count from the first letter of the chain named. In names and notes the source's numbering stands. Several values for one entry are separate records, joined by “and”; a condition that tells them apart may be missing. Equal entries are not always repeated.
Tests used:
[1] = target: T1, recombinant human IL-17 (R & D systems) (human, UniProt Q16552 20-155, limits assumed); experiment: cell-based or functional assay
T1 sequence (looked up): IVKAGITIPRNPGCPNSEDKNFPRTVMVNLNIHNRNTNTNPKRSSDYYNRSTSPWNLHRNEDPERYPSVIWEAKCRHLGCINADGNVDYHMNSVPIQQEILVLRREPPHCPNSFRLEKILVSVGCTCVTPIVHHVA

[2] = target: T2, mammalian cell (CHO) derived human IL-17 (human, UniProt Q16552 24-155); experiment: cell-based or functional assay
T2 sequence (looked up): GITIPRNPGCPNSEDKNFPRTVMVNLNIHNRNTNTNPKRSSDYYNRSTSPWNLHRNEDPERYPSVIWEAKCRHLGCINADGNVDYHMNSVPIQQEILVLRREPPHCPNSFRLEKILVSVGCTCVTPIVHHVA

[3] = target: T3, cynomolgus monkey IL-17 (expressed transiently) (cynomolgus monkey, UniProt A0A2K5TTB0 24-155); experiment: BIAcore 3000, antibody captured by anti-human IgG Fc, IL-17 as analyte; analyte concentration estimated; transient cynomolgus IL-17, concentration estimated
T3 construct: also called transient cynomolgus IL-17
T3 sequence: T2 sequence (looked up) with T3A, P8S, N34S, I77V, N78K, P104R
Method: (§1) BIA (Biamolecular Interaction Analysis) was performed using a BIAcore 3000 (BIAcore AB). Affinipure F(ab′)₂ Fragment goat anti-human IgG, Fc (Jackson ImmunoResearch) was immobilised on a CM5 Sensor Chip via amine coupling chemistry to a capture level of ≈8000 response units (RUs). HBS-EP buffer (10 mM HEPES pH 7.4, 0.15 M NaCl, 3 mM EDTA, 0.005% Surfactant P20, BIAcore AB) was used as the running buffer with a flow rate of 10 μL/min. A 10 μL injection of CA028_{—}497.g2 was used for capture by the immobilised anti-human IgG-F(ab)₂. IL-17 was titrated over the captured CA028_{—}497.g2 at various concentrations at a flow rate of 30 μL/min. The surface was regenerated by a 30 μL injection of 40 mM HCl, followed by a 10 μL injection of 5 mM NaOH.
(§2) Background subtraction binding curves were analysed using the BIAevaluation software (version 3.2) following standard procedures. Kinetic parameters were determined from the fitting algorithm.
(§3) The concentrations of IL-17 from different non-human primate (NHP) species expressed transiently were estimated relative to human IL-17 and these concentrations were then used to determine the affinities of the IL-17s. The affinity was measured at IL-17 concentrations at or below 25 nM. […] The concentration of transient cynomolgus IL-17 and transient marmoset IL-17 was estimated based on equivalent human IL-17 binding.

[4] = target: T3, cynomolgus monkey IL-17 (expressed …); experiment: BIAcore 3000, antibody captured by anti-human IgG Fc, IL-17 as analyte
Method: as §1, §2, §3

[5] = target: T1, recombinant human IL-17 (R & D systems); experiment: as above
Method: as §1, §2, §3

[6] = target: T4, marmoset IL-17 (expressed transiently) (marmoset, UniProt A0ACM8QD00 24-153); experiment: as above
T4 construct: also called marmoset 06073130c; transient marmoset IL-17
T4 sequence: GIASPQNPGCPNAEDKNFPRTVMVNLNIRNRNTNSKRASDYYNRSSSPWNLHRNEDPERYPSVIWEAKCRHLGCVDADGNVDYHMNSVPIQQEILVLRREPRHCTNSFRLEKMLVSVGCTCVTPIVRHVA
Method: as §1, §2, §3

[7] = target: T3, cynomolgus monkey IL-17 (expressed …); experiment: BIAcore 3000, antibody captured by anti-human IgG Fc, IL-17 as analyte; analyte concentration estimated
Method: as §1, §2, §3

[8] = target: T4, marmoset IL-17 (expressed transiently); experiment: as above
Method: as §1, §2, §3

B1: antibody CA028-497.g2 (antibody, human IgG4 S228P, kappa, V domains shown)
VH: EVQLVESGGGLVKPGGSLRLSCAASGVIFSDYYMAWVRQAPGKGLEWVASINFNADISYYRESVKGRFTISRDDSKNTLYLQMNSLKTEDTAVYYCTTDANRQNYDWFAYWGQGTLVTVSS
VL: AIQLTQSPSSLSASVGDRVTITCKASESVSSSMYSYMHWYQQKPGKAPKLLIYRASNLESGVPSRFSGSGSGTDFTLTISSLQPEDFATYYCQQSWTAPRTFGQGTKVEIKR
notes: Humanised IgG4 (S241P) kappa antibody made in CHO cells; also called CA048-497.g2; CA048 497.g2
[1]
  IC50, inhibition of IL-17 induced IL-6 production in Hela cells: 51 ng/mL and 0.34 nM
[2]
  IC50, inhibition of IL-17 induced IL-6 production in Hela cells: 103 ng/mL and 0.7 nM
[3]
  kon: 1.57e+06 M⁻¹ s⁻¹
[4]
  koff: 1.68e-05 s⁻¹
[5]
  Kd: 6.28 pM and 6.3 pM
  koff: 7.38e-06 s⁻¹
  kon: 1.86e+06 M⁻¹ s⁻¹
[6]
  koff: 1.46e-05 s⁻¹
[7]
  Kd: 10.7 pM
[8]
  Kd: 12.9 pM
  kon: 1.13e+06 M⁻¹ s⁻¹

— US20100086538A1 (UCB, published 2010)
